# In the RNAGym collection of RNA variant scans (doi:10.7554/elife.90254):
# B1: LINE1-full (parent)
# chain: UACGUAGGUGGUUUUCCCCUGAUAGUGCUAAGGGGGCCUGGAAGUUUGGACUGGGCAGAGCUCAACACAGCGUGGCAAAGUGGCUGUGGCUAGACUGCCUCUCUGGAUUCCUCGUCACUCAGCAGGGCAUCUCUGAGAGAAAUGCC
# Variants of: B1
# Experiment: self-cleavage, relative activity (ratio to wild type); higher = more cleavage; in vitro, sequencing; the parent is a self-cleaving ribozyme
row,Variant,self-cleavage
1,U26C U39C,0.9
2,G122A U130C,1.91
3,G41U U73C,2.76
4,U14G A136G,1.16
5,A31U U104A,1.15
6,U47A G53A,1.23
7,G88A U102C,0.06
8,A6G A136G,1.17
9,A79G A107U,1.41
10,U115A C128U,1.23
11,G125U U134A,1.87
12,C19A U85A,0.14
13,G75A A117C,1.31
14,G106A A141G,1.16
15,U9A C18G,1.1
16,U15C U52A,1.35
17,A24U G35U,0.67
18,G82A A140G,0.93
19,U100C C128U,1.58
20,U15A U100C,0.91
21,A22G A78G,0.94
22,C51U A64U,0.46
23,G60U U104C,0.04
24,U12A A121G,1.43

row,Variant,self-cleavage
1,C84U U87C,0.04
2,U96A A124G,0.06
3,C19U A121C,1.02
4,A43G U112C,1.2
5,G53U A141G,1.58
6,A141G A142C,0.39
7,U13C G53U,1.11
8,A69C U143G,0
9,U1A A136G,1.71
10,A78U,1.92
11,A24U A129G,0.75
12,A121U C131U,0.58
13,U23C A117C,1.51
14,A138C U143A,1.94
15,C3U A57U,0.17
16,U47C A65G,0.09
17,A117U,1.46
18,G25U A140G,0.7
19,U52C U102A,0.87
20,C3U U12G,1.13
21,G34C C37U,0.84
22,U102A A142U,1.5
23,A22U U132C,1.6
24,U14C U100A,0.9

row,Variant,self-cleavage
1,A42G G48A,0.85
2,U81A A138C,2.3
3,A2U A121G,1.53
4,G93U A142U,0.04
5,G25C U115A,1.02
6,U96A C113U,0.06
7,A79U A94G,0.26
8,U5C U52G,1.23
9,G35U U104C,0.8
10,U47C U130C,1.63
11,A57U A107U,0.02
12,A2U U119C,1.26
13,U23A U102C,2.11
14,U13A U46A,1.21
15,U1C U87A,0.23
16,A30G U45A,1.53
17,U23C C95U,0.22
18,A24U C51U,0.84
19,A6C C113U,1.35
20,U45G A129U,0.67
21,G114A G122U,1.5
22,G70A A138C,0.32
23,U52A U102C,0.88
24,A2G U96G,0.12

row,Variant,self-cleavage
1,C37U A57U,0.05
2,U39A U119A,1.46
3,U15A C146U,0.88
4,A67U U102A,0.11
5,U29A A142G,1.04
6,U29A A142C,0.56
7,U52A A117U,1.35
8,C38U A67U,0.07
9,U100A C146G,1.26
10,U96A U104A,0.07
11,U46C U134A,1.1
12,G11A A59G,0.08
13,C19U U52G,0.5
14,C146U,1.29
15,U15C A50C,2.42
16,G32U U143C,1.1
17,U12C A59U,0.13
18,A22U U39A,1.17
19,U1A U29C,0.84
20,A79U U87A,0.05
21,U45C U115A,1.49
22,U29C U85A,0.12
23,U73C C110U,2.11
24,A94C U119C,0.1

row,Variant,self-cleavage
1,G82U U115C,0.84
2,A31G G35C,1.15
3,A50G U73G,0.34
4,A69U A136G,0.06
5,U47C C63U,0.37
6,U46C U81C,1.46
7,U62A G127U,0.02
8,A67G U115C,0.55
9,C61U A67G,1.08
10,A2G U29C,0.81
11,U15C U26A,1.16
12,U14C U45C,1.21
13,A31U U115C,1.32
14,C99U U119C,0.96
15,A57G G58A,0.03
16,U23C C120U,0.55
17,G53U U119A,1.33
18,U96A C118A,0.02
19,U62C U143G,0.08
20,G49U U91C,0.46
21,U9C U102C,1.3
22,U9C U102A,1.11
23,U13A U14A,1.14
24,A78C U96A,0.14

row,Variant,self-cleavage
1,U14C G36A,1.55
2,U39A U73C,1.38
3,C19A A142U,1.36
4,U26G U104C,0.81
5,G7A U91C,0.34
6,G7A U102C,1.77
7,A121G G144A,1.91
8,U29A A121G,1.31
9,A22G C68U,0.98
10,U1C U23A,0.56
11,C51U A94G,0.22
12,U47A A117G,1.38
13,C113U C123U,1.35
14,U45A A64G,0.57
15,G27A A129G,2.07
16,A59U A79C,1.23
17,U5C U47C,0.67
18,U5A G34U,0.88
19,A31G A142G,1.17
20,U12G C19U,1.09
21,C145U C146A,1.59
22,A138G G144C,1.6
23,G21A A124G,0.9
24,A24U U112C,1.28

row,Variant,self-cleavage
1,A59G U85C,0.09
2,C18U G139U,1.11
3,U45G C113A,0.98
4,C71G A136G,0.28
5,G33C A64U,0.64
6,U12G U130A,1.65
7,C123G U132C,1.43
8,U85A U87A,0.07
9,A50U U81A,1.1
10,A67U A79U,0.21
11,C51U U73A,1.48
12,U85C A124U,0.21
13,U9A A57U,0.19
14,G35A A117U,0.56
15,U29C A124U,1.04
16,U62C A140G,0.04
17,U85C G105A,0.12
18,G70U A140G,0.04
19,U46C A92U,0.76
20,A64U U102C,0.34
21,G4U U100C,1.73
22,U12G G114A,1.07
23,U26A U39C,0.73
